# Results taken from the supplement of paper PMC7877785.
# ± gives the uncertainty stated by the source.
# Assay: self-splicing fitness, log relative to wild type (ln ratio); higher = more splicing; Tetrahymena group I intron in knt gene, E. coli kanamycin selection, DiMSum; sequences stand for … in CUCUCU…GGAGGGAAAAGUUAUCAGGCAUGCACCUGGUAGCUAGUCUUUAAACCAAUAGAUUGCAUCGGUUUAAAAGGCAAGACCGUCAAAUUGCGGGAAAGGGGUCAACAGCCGUUCAGUACCAAGUCUCAGGGGAAACUUUGAGAUGGCCUUGCAAAGGGUAUGGUAAUAAGCUGACGGACAUGGUCCUAACCACGCAGCCAAGUCCUAAGUCAACAGAUCUUCUGUUGAUAUGGAUGCAGUUCACAGACUAAAUGUCGGUCGGGGAAGAUGUAUUCUUCUCAUAAGAUAUAGUCGGACCUCUCCUUAAUGGGAGCUAGCGGAUGAAGUGAUGCAACACUGGAGCCGCUGGGAACUAAUUUGUAUGCGAAAGUAUAUUGAUUAGUUUUGGAGUACUCGUGGUCG
# Method in brief: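 The eight P1ex-region nucleotides of an intron in the knt kanamycin-resistance gene on pET-22b(+) were all randomised and the library put into E. coli BL21(DE3). Six replicate transformations were grown overnight at 37°C or 30°C on LB agar with or without 25 μg/mL kanamycin, together with 100 μg/mL carbenicillin, 50 μM IPTG and 0.2% rhamnose. Colonies were pooled and amplicon-sequenced on an Illumina HiSeq 2500. Fitness from DiMSum is the error-weighted combination of wild-type-normalised replicate fold changes, kanamycin over none.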
Sequence,self-splicing fitness (ln) (30 °C),self-splicing fitness (ln) (37 °C)
CAUAAGCAAUAUUACGAUAG,0.359 ± 0.072,0.232 ± 0.084
GCGCAGCAAUAUUACGGUUU,-0.323 ± 0.048,-0.167 ± 0.057
ACGGAGCAAUAUUACGGACU,-2.21 ± 0.15,-1.84 ± 0.16
AGCCAGCAAUAUUACGGCGG,-2 ± 0.1,-1.1 ± 0.15
UGCUAGCAAUAUUACGUUGU,-2.59 ± 0.17,-3.8 ± 0.34
CAAGAGCAAUAUUACGAUGA,-3.62 ± 0.33,-0.971 ± 0.17
GGGGAGCAAUAUUACGAAAU,-3.38 ± 0.47,-2.37 ± 0.39
UGUAAGCAAUAUUACGCAAG,-2.85 ± 0.39,-2.66 ± 0.44
GACCAGCAAUAUUACGGUAA,0.0402 ± 0.06,-0.0565 ± 0.071
CUGAAGCAAUAUUACGCGUA,-4.36 ± 0.36,-1.98 ± 0.26
GGUUAGCAAUAUUACGCGUU,-1.01 ± 0.17,-0.358 ± 0.19
AAAUAGCAAUAUUACGUAGU,-3.11 ± 0.099,-1.79 ± 0.095
AAUGAGCAAUAUUACGGUUU,-2.13 ± 0.097,-0.543 ± 0.11
UCGGAGCAAUAUUACGGGCC,-4.15 ± 0.39,-3.6 ± 0.33
GCUCAGCAAUAUUACGUUAG,-2.79 ± 0.13,-0.765 ± 0.12
AAGAAGCAAUAUUACGCAAC,-1.53 ± 0.12,-2.1 ± 0.18
GUGAAGCAAUAUUACGAGGU,-1.83 ± 0.29,-1.36 ± 0.26
CUGGAGCAAUAUUACGCCGC,–,-1.1 ± 0.38
CAUGAGCAAUAUUACGAUAG,-1.55 ± 0.088,-0.709 ± 0.1
GGACAGCAAUAUUACGCUCC,–,-1.24 ± 0.46
GUAUAGCAAUAUUACGCCGG,-2.45 ± 0.37,-1.59 ± 0.35
AAGUAGCAAUAUUACGAAGU,-3.02 ± 0.2,-1.9 ± 0.18
AAUGAGCAAUAUUACGGGGG,-4.09 ± 0.42,-1.32 ± 0.25
AGUGAGCAAUAUUACGUGGA,-2.63 ± 0.32,-1.49 ± 0.28

Sequence,self-splicing fitness (ln) (30 °C),self-splicing fitness (ln) (37 °C)
CCCUAGCAAUAUUACGAGAU,-3.88 ± 0.22,-2.91 ± 0.24
CGGAAGCAAUAUUACGUGCG,-1.64 ± 0.095,-1.05 ± 0.14
UGGGAGCAAUAUUACGGGUA,-2.68 ± 0.32,-2.33 ± 0.37
AAGAAGCAAUAUUACGUCUG,-0.345 ± 0.054,0.0995 ± 0.071
AAAAAGCAAUAUUACGAGAC,-3.02 ± 0.19,-2.47 ± 0.24
UCCUAGCAAUAUUACGGCCG,-4.16 ± 0.42,-3.12 ± 0.37
CAUAAGCAAUAUUACGGUAU,-4.64 ± 0.26,-2.94 ± 0.21
AAAUAGCAAUAUUACGGGGA,-3.71 ± 0.25,-2.86 ± 0.19
UUGAAGCAAUAUUACGCCGA,0.633 ± 0.2,0.737 ± 0.25
AAUAAGCAAUAUUACGAUUA,-0.789 ± 0.12,0.438 ± 0.14
CUUUAGCAAUAUUACGUCAA,-2.48 ± 0.35,-2.67 ± 0.38
GACCAGCAAUAUUACGCGAU,-2.28 ± 0.11,-1.17 ± 0.093
AAUAAGCAAUAUUACGAGUG,-1.05 ± 0.07,-0.56 ± 0.09
AGGUAGCAAUAUUACGCCGA,-0.983 ± 0.019,-0.334 ± 0.034
AUUUAGCAAUAUUACGAAAA,-1.99 ± 0.26,-1.01 ± 0.23
UGUGAGCAAUAUUACGCUGG,-2.49 ± 0.28,-2.71 ± 0.37
AGCCAGCAAUAUUACGCCUU,-1.59 ± 0.16,-0.556 ± 0.2
UCAUAGCAAUAUUACGGUUG,-3.07 ± 0.19,-1.94 ± 0.17
CUCAAGCAAUAUUACGUGUA,-2.47 ± 0.13,-1.91 ± 0.11
UCGUAGCAAUAUUACGCGUA,-1.16 ± 0.14,-0.895 ± 0.11
ACCUAGCAAUAUUACGAAUC,-2.94 ± 0.15,-1.07 ± 0.13
CAGCAGCAAUAUUACGCGAU,-3.91 ± 0.22,-1.83 ± 0.17
UAGUAGCAAUAUUACGCUCC,-2.38 ± 0.45,-0.239 ± 0.45
CCUAAGCAAUAUUACGGGUG,-2.47 ± 0.077,-1.11 ± 0.073
